Data as given in the supplement of paper PMC7877785.
± gives the uncertainty stated by the source.

Assay: self-splicing fitness, log relative to wild type (ln ratio); higher = more splicing; Tetrahymena group I intron in knt gene, E. coli kanamycin selection, DiMSum; sequences stand for … in CUCUCU…GGAGGGAAAAGUUAUCAGGCAUGCACCUGGUAGCUAGUCUUUAAACCAAUAGAUUGCAUCGGUUUAAAAGGCAAGACCGUCAAAUUGCGGGAAAGGGGUCAACAGCCGUUCAGUACCAAGUCUCAGGGGAAACUUUGAGAUGGCCUUGCAAAGGGUAUGGUAAUAAGCUGACGGACAUGGUCCUAACCACGCAGCCAAGUCCUAAGUCAACAGAUCUUCUGUUGAUAUGGAUGCAGUUCACAGACUAAAUGUCGGUCGGGGAAGAUGUAUUCUUCUCAUAAGAUAUAGUCGGACCUCUCCUUAAUGGGAGCUAGCGGAUGAAGUGAUGCAACACUGGAGCCGCUGGGAACUAAUUUGUAUGCGAAAGUAUAUUGAUUAGUUUUGGAGUACUCGUGGUCG
In short: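 Pooled colonies went to amplicon sequencing on an Illumina HiSeq 2500 after six replicate transformations. The plates were LB agar with 100 μg/mL carbenicillin, 50 μM IPTG and 0.2% rhamnose, with or without 25 μg/mL kanamycin, incubated overnight at 37°C or 30°C. The E. coli BL21(DE3) library had all eight P1ex-region intron nucleotides randomised, the intron placed in the knt kanamycin-resistance gene on pET-22b(+). DiMSum fitness is the error-weighted combination of replicate fold changes, kanamycin against none, normalised to wild type.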

Sequence	self-splicing fitness (ln) (30 °C)	self-splicing fitness (ln) (37 °C)
UACUAGCAAUAUUACGUCUC	-3.59 ± 0.32	-2.93 ± 0.31
UACUAGCAAUAUUACGUUAG	-3.54 ± 0.19	-2.66 ± 0.23
UACUAGCAAUAUUACGUUGC	-2.38 ± 0.26	-1.85 ± 0.28
UAGAAGCAAUAUUACGACUU	-0.772 ± 0.11	-0.183 ± 0.17
UAGAAGCAAUAUUACGAGAA	-1.7 ± 0.44	-1.55 ± 0.35
UAGAAGCAAUAUUACGAGCG	-0.732 ± 0.096	-0.815 ± 0.13
UAGAAGCAAUAUUACGAGGA	-3.7 ± 0.2	-2.06 ± 0.15
UAGAAGCAAUAUUACGCAGA	-3.4 ± 0.34	-1.79 ± 0.18
UAGAAGCAAUAUUACGCAUC	-3 ± 0.23	-3.37 ± 0.31
UAGAAGCAAUAUUACGCCUA	-0.42 ± 0.13	0.0572 ± 0.14
UAGAAGCAAUAUUACGCGGA	-1.64 ± 0.13	-0.655 ± 0.11
UAGAAGCAAUAUUACGCGUA	-0.436 ± 0.11	-0.472 ± 0.12
UAGAAGCAAUAUUACGCUUU		-1.99 ± 0.3
UAGAAGCAAUAUUACGGCGG	-0.497 ± 0.099	0.388 ± 0.12
UAGAAGCAAUAUUACGUAAA	-2.04 ± 0.14	-1.33 ± 0.14
UAGCAGCAAUAUUACGAACU	-0.336 ± 0.18	0.618 ± 0.14
UAGCAGCAAUAUUACGAAUG	-0.736 ± 0.072	-0.47 ± 0.13
UAGCAGCAAUAUUACGACAA	-1.68 ± 0.12	-0.157 ± 0.14
UAGCAGCAAUAUUACGACCC		-0.938 ± 0.41
UAGCAGCAAUAUUACGACUG	-0.817 ± 0.14	-0.556 ± 0.18

Sequence	self-splicing fitness (ln) (30 °C)	self-splicing fitness (ln) (37 °C)
UAGCAGCAAUAUUACGAGCG	0.035 ± 0.078	0.235 ± 0.098
UAGCAGCAAUAUUACGAUCG	-0.76 ± 0.093	-0.0334 ± 0.12
UAGCAGCAAUAUUACGCCGA	-0.884 ± 0.14	0.482 ± 0.14
UAGCAGCAAUAUUACGCCGG	-0.94 ± 0.096	-0.0813 ± 0.15
UAGCAGCAAUAUUACGGACG	-0.528 ± 0.08	-0.837 ± 0.1
UAGCAGCAAUAUUACGGCCA	0.54 ± 0.1	0.33 ± 0.16
UAGCAGCAAUAUUACGGCCU	-0.225 ± 0.093	0.118 ± 0.12
UAGCAGCAAUAUUACGUACA	-1.16 ± 0.091	-0.0473 ± 0.1
UAGCAGCAAUAUUACGUACC	-1.91 ± 0.38	
UAGCAGCAAUAUUACGUCCC	-3.06 ± 0.41	-1.7 ± 0.4
UAGGAGCAAUAUUACGAACC	-3.08 ± 0.41	
UAGGAGCAAUAUUACGCACA	-0.278 ± 0.33	-0.212 ± 0.38
UAGGAGCAAUAUUACGCACU		-0.383 ± 0.28
UAGGAGCAAUAUUACGCGGA	-3.57 ± 0.38	-2.52 ± 0.26
UAGGAGCAAUAUUACGCGUG	-2.31 ± 0.12	-0.579 ± 0.12
UAGGAGCAAUAUUACGCUCG	-1.49 ± 0.21	0.196 ± 0.24
UAGGAGCAAUAUUACGGAAU	-4.06 ± 0.36	-2.51 ± 0.33
UAGGAGCAAUAUUACGGAGA		-2.34 ± 0.38
UAGGAGCAAUAUUACGGAGU	-1.77 ± 0.36	
UAGGAGCAAUAUUACGGGAU	-3.21 ± 0.35	-2.27 ± 0.37
